Data: publication PMC11788743, “Biochemical characterization of the human ubiquitous glucose‐6‐phosphatase in neutrophil granulocytes” (FEBS Open Bio, 2024)

Experiments:
[1] = substrate: O=C(O)[C@H](O)[C@@H](O)[C@H](O)[C@H](O)COP(=O)(O)O; test: inorganic phosphate release (molybdate), Michaelis-Menten fit, GFP control subtracted; format: biochemical, Homo sapiens; conditions: 50 mM Mops pH 6.5, 25 mM CaCl2, 0.5 mM MnCl2, 2.5 mM EDTA, 37 °C, alamethicin, apparent, cell lysate
Excerpt: (§1) inorganic phosphate release (molybdate), Michaelis-Menten fit, GFP control subtracted on human recombinant G6PC3 (glucose-6-phosphatase-β)

[2] = substrate: O=P(O)(O)OC[C@@H](O)[C@@H](O)[C@H](O)[C@@H](O)CO; test: as above; format: biochemical, Homo sapiens; conditions: 50 mM Mops pH 6.5, 25 mM CaCl2, 0.5 mM MnCl2, 2.5 mM EDTA, 37 °C, alamethicin, apparent, cell lysate
Excerpt: as §1

B1: human recombinant G6PC3 (glucose-6-phosphatase-β) (Homo sapiens) (protein)
chain: MESTLGAGIVIAEALQNQLAWLENVWLWITFLGDPKILFLFYFPAAYYASRRVGIAVLWISLITEWLNLIFKWFLFGDRPFWWVHESGYYSQAPAQVHQFPSSCETGPGSPSGHCMITGAALWPIMTALSSQVATRARSRWVRVMPSLAYCTFLLAVGLSRIFILAHFPHQVLAGLITGAVLGWLMTPRVPMERELSFYGLTALALMLGTSLIYWTLFTLGLDLSWSISLAFKWCERPEWIHVDSRPFASLSRDSGAALGLGIALHSPCYAQVRRAQLGNGQKIACLVLAMGLLGPLDWLGHPPQISLFYIFNFLKYTLWPCLVLALVPWAVHMFSAQEAPPIHSS
notes: full-length G6PC3 cDNA (universal human cDNA) in pEGFP-N1 (XhoI/EcoRI), GFP-G6PC3 fusion, overexpressed in HEK293T; alamethicin-permeabilized cell lysate
Km [1]: 8.22 ± 1.4 mM | Vmax [1]: 0.19 µmol/min/mg | Km [2]: 5.11 ± 0.7 mM | Vmax [2]: 1.66 µmol/min/mg
